Target: the molecule itself
Assay: SEC

B1: phosphorylated Stat3β (residues 127-722), wildtype (domain or fragment, murine, UniProt P42227-2 127-722, looked up)
chain: GQANHPTAAVVTEKQQMLEQHLQDVRKRVQDLEQKMKVVENLQDDFDFNYKTLKSQGDMQDLNGNNQSVTRQKMQQLEQMLTALDQMRRSIVSELAGLLSAMEYVQKTLTDEELADWKRRQQIACIGGPPNICLDRLENWITSLAESQLQTRQQIKKLEELQQKVSYKGDPIVQHRPMLEERIVELFRNLMKSAFVVERQPCMPMHPDRPLVIKTGVQFTTKVRLLVKFPELNYQLKIKVCIDKDSGDVAALRGSRKFNILGTNTKVMNMEESNNGSLSAEFKHLTLREQRCGNGGRANCDASLIVTEELHLITFETEVYHQGLKIDLETHSLPVVVISNICQMPNAWASILWYNMLTNNPKNVNFFTKPPIGTWDQVAEVLSWQFSSTTKRGLSIEQLTTLAEKLLGPGVNYSGCQITWAKFCKENMAGKGFSFWVWLDNIIDLVKKYILALWNEGYIMGFISKERERAILSTKPPGTFLLRFSESSKEGGVTFTWVEKDISGKTQIQSVEPYTKQQLNNMSFAEIIMGYKIMDATNILVSPLVYLYPDIPKEEAFGKYCRPESQEHPEADPGSAAPYLKTKFICVTPFIDAVWK
modifications: phosphotyrosine at 705
- stoichiometry N: 2
